Six molecules from article doi:10.1101/2020.03.09.984104 (bioRxiv, 2020) can be followed below.

The experiment deals with E. coli Hsp70 (DnaK) (E. coli, UniProt P0A6Y8 1-638). Description: SPR.
E. coli Hsp70 (DnaK), sequence (P0A6Y8 whole entry): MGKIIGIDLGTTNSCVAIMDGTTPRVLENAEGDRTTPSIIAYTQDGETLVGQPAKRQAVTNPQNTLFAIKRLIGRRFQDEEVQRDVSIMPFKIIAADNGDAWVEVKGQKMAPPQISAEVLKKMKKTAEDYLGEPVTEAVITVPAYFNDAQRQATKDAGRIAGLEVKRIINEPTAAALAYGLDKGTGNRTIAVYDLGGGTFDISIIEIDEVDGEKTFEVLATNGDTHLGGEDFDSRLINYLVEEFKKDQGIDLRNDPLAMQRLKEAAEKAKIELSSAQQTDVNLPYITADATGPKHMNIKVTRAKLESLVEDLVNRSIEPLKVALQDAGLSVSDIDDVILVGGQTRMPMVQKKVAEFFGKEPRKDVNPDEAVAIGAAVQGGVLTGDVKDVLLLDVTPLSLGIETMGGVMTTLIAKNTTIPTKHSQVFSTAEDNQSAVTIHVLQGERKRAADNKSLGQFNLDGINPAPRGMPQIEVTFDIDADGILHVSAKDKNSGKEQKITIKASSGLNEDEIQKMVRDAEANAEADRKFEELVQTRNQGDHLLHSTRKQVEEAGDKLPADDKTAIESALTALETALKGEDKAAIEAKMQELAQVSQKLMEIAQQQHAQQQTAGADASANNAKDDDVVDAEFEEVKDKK
In the case of ANNNMYRR, the binding result is “binds”.
As for NRNNTG, the entry is “binds”; as for NRLLTG, “binds”; as for ALLLMYRR, “binds”.
As for GFRNNNMYRF, the entry is “binds”.
As for GFRVVLMYRF, the entry is “binds”.
